Test results published in the RNAGym collection of RNA variant scans (doi:10.7554/elife.80360).

B1: HDV Ribozyme (parent)
chain: GGCCGGCAUGGUCCCAGCCUCCUCGCUGGCGCCGGCUGGGCAACAUUCCGAGGGGACCGUCCCCUCGGUAAUGGCGAAUGGGACCCA

Variants of: B1
Test: self-cleavage, relative activity (ratio to wild type); higher = more cleavage; co-transcriptional

In order of rising self-cleavage:
1. U20G U69A  0
2. U20G U27C  0
3. U20A U27G  0
4. U20C C58U  0
5. U20C C36A  0
6. U20C U23G  0
7. U20G G73C  0
8. C21A G28C  0
9. U20A G67C  0
10. U20A G34U  0
11. U20G G35C  0
12. U20C U69A  0
13. U20A U60C  0
14. U20A U69C  0
15. U20G U72G  0
16. C21A C75A  0
17. U20G G25C  0
18. U20A U72G  0
19. U20C A83U  0
20. U20G C24U  0
21. U20G C30U  0
22. U20C C75U  0
23. U20C C75G  0
24. U20C A42G  0
25. U20C G73A  0
26. U20C U27C  0
27. C21A C24A  0
28. C21A C24G  0
29. U20A U46C  0
30. U20A G80U  0.0141
31. C21A G39A  0.0277
32. C21A G80A  0.0289
33. U20A G55U  0.0302
34. C21A C86U  0.0308
35. C21A C63A  0.0314
36. U20C C21U  0.0339
37. U20G G39U  0.0369
38. U20C G39U  0.0386
39. U20G G39A  0.0396
40. C21A G67U  0.04
41. C21A A42C  0.0437
42. U20C C41U  0.0449
43. U20A G67A  0.0462
44. C21A C63U  0.0462
45. U20A U65A  0.0504
46. U20A U69G  0.0519
47. U20G G34U  0.0519
48. U20A G55C  0.0536
49. C21A G55U  0.0554
50. U20G C30G  0.0554
51. C21A C86A  0.0563
52. C21A A71G  0.0573
53. U20C C48G  0.0594
54. C21A C64G  0.0604
55. U20C A77C  0.0615
56. C21A G80U  0.0622
57. C21A C58U  0.0627
58. C21A C48U  0.0639
59. C21A G38U  0.0665
60. C21A C64A  0.0692
61. U20C U23C  0.0723
62. U20C U72G  0.0723
63. C21A C24U  0.0739
64. U20C G28C  0.0755
65. U20G A45G  0.0755
66. C21A G54U  0.0773
67. U20A G53C  0.0773
68. U20C C48U  0.0791
69. C21A C57G  0.0811
70. C21A G31C  0.0817
71. C21A C64U  0.0852
72. U20C C49G  0.0852
73. U20A G39U  0.0852
74. C21A  0.0856
75. U20A G29U  0.0875
76. C21A A56C  0.0898
77. U20C G59C  0.0898
78. U20C A71U  0.0898
79. C21A G76U  0.0906
80. U20G G74A  0.0923
81. U20C A71G  0.0978
82. U20A G80C  0.0992
83. C21A G76C  0.0997
84. U20C G53U  0.101
85. U20G G31U  0.102
86. U20C C26A  0.104
87. U20G G82U  0.104
88. C21A C58A  0.104
89. U20C G80C  0.106
90. C21A A71U  0.106
91. U20A U72A  0.107
92. C21A G52U  0.107
93. U20G A43U  0.107
94. C21A A56G  0.109
95. C21A C86G  0.111
96. U20C C84U  0.111
97. C21A G50A  0.111
98. C21A G39C  0.113
99. U20A G67U  0.115
100. C21A A43C  0.116
101. C21A G34A  0.119
102. U20C G53A  0.122
103. U20A G53A  0.122
104. U20C C22U  0.125
105. C21A G52C  0.125
106. U20A U60G  0.128
107. U20C G59U  0.128
108. U20C C64G  0.128
109. C21A G55A  0.129
110. U20C C66G  0.131
111. C21A A43G  0.132
112. U20C A83C  0.133
113. U20C G73C  0.135
114. U20G G73U  0.136
115. C21A G67C  0.137
116. U20G G34C  0.138
117. U20G A45U  0.138
118. U20G G50C  0.138
119. C21A G31U  0.142
120. U20C U65G  0.145
121. U20C G54A  0.145
122. U20C C64A  0.145
123. U20G C24G  0.151
124. U20G C36G  0.151
125. U20G C36U  0.155
126. U20C C41A  0.156
127. U20G G67A  0.156
128. U20G G68C  0.166
129. U20G C41G  0.166
130. U20G C24A  0.17
131. U20G G39C  0.175
132. U20G C64A  0.178
133. U20G G50U  0.18
134. U20G U69C  0.185
135. U20C U79G  0.185
136. U20G U23G  0.185
137. U20C A87U  0.189
138. C21A C57U  0.192
139. U20C C26U  0.192
140. U20C C49U  0.192
141. U20G C64G  0.196
142. U20G C26G  0.196
143. U20C U27A  0.196
144. U20C G55U  0.199
145. U20G G68U  0.201
146. U20C U69C  0.208
147. U20C A77G  0.208
148. U20G C63A  0.214
149. U20C A70C  0.246
150. U20G A78C  0.249
151. U20C A87C  0.254
152. C21A G76A  0.256
153. U20G A43C  0.256
154. U20G G52C  0.256
155. U20C U47C  0.262
156. U20G U27A  0.266
157. U20G C58A  0.266
158. U20G C41U  0.287
159. U20G C63U  0.297
160. U20G C26A  0.32
161. U20G U27G  0.332
162. U20G G40A  0.374
163. U20C U65C  0.401
164. U20C G67C  0.405
165. U20G G67U  0.467
166. U20G G52A  0.499
167. U20G G54C  0.571
